Assay results as given in US20070265189A1.
Where two headings read alike, the source gives them in different places. No end group written: not given here.

Assays:
[1] = biological target: soluble human insulin receptor-immunoglobulin heavy chain chimera (sIR-Fc; Bass et al., 1996) (human) (UniProt P06213); experiment: phage ELISA
[2] = biological target: human insulin receptor (HIR) (human) (UniProt P06213); experiment: HIR Kd; method not restated (Example 3: 125I-insulin displacement, solubilised HIR)
[3] = biological target: human insulin receptor (HIR) (human) (UniProt P06213); experiment: as above; remark: listed apart in the source
[4] = biological target: Soluble IGF-1R (sIGF-1R), R&D Systems Cat. # 391-GR/CF, P08069; experiment: phage ELISA
[5] = biological target: soluble human insulin receptor-immunoglobulin heavy chain chimera (sIR-Fc; Bass et al., 1996) (human), P06213; experiment: phage ELISA
[6] = biological target: human insulin receptor (HIR) purified from transfected cells after solubilization with Triton X-100 (human) (UniProt P06213); experiment: competition with 125I-insulin for solubilised HIR, PEG precipitation; Kd calculated
[7] = biological target: T1, Insulin receptor prepared according to Bass et al., 1996 (human), P06213; experiment: phage ELISA: IR ratio over background divided by IGF-1R ratio over background
[8] = biological target: Soluble IGF-1R (R&D Systems, Cat. # 391-GR/CF), P08069
[9] = biological target: T1, Insulin receptor prepared according to …
[10] = biological target: Soluble IGF-1R (R&D Systems, Cat. # 391-GR/CF), P08069; experiment: phage ELISA: IGF-1R ratio over background divided by IR ratio over background

B1: A6L-0-H3-IR (peptide)
peptide: YRGMLVLGRISGGAGKAASERPARIGQKVSAVNFYDWFV
IR/IGF-1R comparison [1]: 0.1 | Ratio over Background [1]: 2

B2: Fusion 464 (MBP fusion of LF-H2C) (protein, not shown: large carriers; small tags and cut ends)
chain: NNNNLGIEGRISEFIEGRDYKDDDDKFHENFYDWFVRQVSAAGAPVPYPDPLEPRAA
Kd [2]: 39 nM

B3: RB517 (peptide)
peptide: DYKDDDDKHLCVLEELFWGASLFGYCSGGGSGGSHLCVLEELFWGASLFGYCSGAAAGAPVPYPDPLEPRAA
Kd [3]: 60 nM

B4: 20E2B-3-C11-IGFR (peptide)
peptide: CMMXDGFYAGLGCLLTAGEGR
modifications: not fully specified; printed as CMM.DGFYAGLGCLLTAGEGR; X: residue not identified in the source; cysteine pairing not given here
IGF-1R/IR comparison [4]: 7.5 | Ratio over Background [4]: 15.4 | IR/IGF-1R comparison [5]: 0.1 | Ratio over Background [5]: 2.1

B5: Fusion 463 (MBP fusion of H2C-3aa-H2C) (protein, not shown: large carriers; small tags and cut ends)
chain: NNNNLGIEGRISEFIEGRAQPAMAFHENFYDWFVRQVSGGSFHENFYDWFVRQVSAAAGAPVPYPDPLEPRAA
Kd [3]: 960 nM

B6: S386 (peptide)
peptide: GSLDESFYDWFERQLG
Kd [6]: 320 nM

B7: B6Hα-2-C4-IR (peptide)
peptide: RCGRWXAEMGAGDDPFYHKLSELVCG
modifications: not fully specified; X: residue not identified in the source; cysteine pairing not given here
IGF-1R/IR comparison [4]: 11 | Ratio over Background [4]: 9.9 | IR/IGF-1R comparison [5]: 0.1 | Ratio over Background [5]: 0.9

B8: B6L-4-A7-IR (peptide, not shown: large carriers)
peptide: DYKDAGTPAQVGXNRLWSVWPGEHWNTVDPFYNKLSELLRESGAAAAGAP
modifications: not fully specified; X: residue not identified in the source; also: phage-displayed fusion
Comparison IR/IGF-1R [7]: 0.6 | Ratio over Background, IGF-1R (ratio over background) [8]: 3.4 | Ratio over Background, IR (ratio over background) [9]: 1.9 | Comparison IGF-1R/IR [10]: 1.8

B9: Fusion 436 (MBP fusion of H2C-9aa-H2C) (protein, not shown: large carriers; small tags and cut ends)
chain: NNNNLGIEGRISEFIEGRAQPAMAFHENFYDWFVRQVSGGSGGSGGSFHENFYDWFVRQVSAAAGAPVPYPDPLEPRAA
Kd [3]: 410 nM

B10: Fusion 435 (MBP fusion of H2C-3aa-H2C-3aa-H2C) (protein, not shown: large carriers; small tags and cut ends)
chain: NNNNLGIEGRISEFIEGRAQPAMAFHENFYDWFVRQVSGGSFHENFYDWFVRQVSGGSFHENFYDWFVRQVSAAAGAPVPYPDPLEPRAA
Kd [3]: 20 nM | Kd [2]: 2000 nM

B11: RB537 (peptide)
peptide: MADYKDDDDKGSLDESFYDWFERQLGKKGGSGGSWLDQEWAWVQCEVYGRGCPSAAAGAPVPYPDPLEPRPG
Kd [3]: 0.059 nM

B12: Fusion 437 (MBP fusion of H2C) (protein, not shown: large carriers; small tags and cut ends)
chain: NNNNLGIEGRISEFIEGRAQPAMAFHENFYDWFVRQVSAAAGAPVPYPDPLEPRAA
Kd [3]: 83 nM | Kd [2]: 8300 nM

B13: RB538 (peptide)
peptide: MADYKDDDDKGSLDESFYDWFERQLGKKGGSGGSGGSGGSWLDQEWAWVQCEVYGRGCPSAAAGAPVPYPDPLEPRPG
Kd [3]: 0.017 nM

B14: RB521 (peptide)
peptide: MADYKDDDDKGSLDESFYDWFERQLGKKGGSGGSGSLDESFYDWFERQLGKKAAAGAPVPYPDPLEPRPG
Kd [3]: 44 nM

B15: H2CA-4-H9-IGFR (peptide)
peptide: RGAVAGFHDQFYDWFDRQVSRVHKFG
IR/IGF-1R comparison [1]: 0.3 | Ratio over Background [1]: 1.9

B16: B6L-3-G6-IR (peptide, not shown: large carriers)
peptide: DYKDVDTPAQVGWNRLWSVGPGEHWYTDDPFYHXLSELLRESGAAAAGAP
modifications: X: residue not identified in the source; also: phage-displayed fusion
Comparison IR/IGF-1R [7]: 0.7 | Ratio over Background, IGF-1R (ratio over background) [8]: 2.5 | Ratio over Background, IR (ratio over background) [9]: 1.8 | Comparison IGF-1R/IR [10]: 1.4

B17: 20E2B-2-B11-IGFR (peptide)
peptide: VVTPVNFYRALEALVRGXRLG
modifications: not fully specified; printed as VVTPVNFYRALEALVRG.RLG; X: residue not identified in the source
IGF-1R/IR comparison [4]: 9.4 | Ratio over Background [4]: 10.6 | IR/IGF-1R comparison [5]: 0.1 | Ratio over Background [5]: 1.1
